In patent publication EP4477665A1 (AffyXell Therapeutics Co., Ltd., dated 2024):

B1: clone-230 XT76 (designed binder)
chain: IPGGLSEAKPATPEIQEIVDKVKPQLEEKTGETYGKLEAVQYKTQVVHYYVHYNDQGTNYYIKVRAGDNKYMHLKVFKSLWGENLFAKWEDLVLTGYQVDKNKDDELTGFAEAAAKEAAAKEAAAKEAAAKEAAAKEAAAKMIPGGLSEAKPATPEIQEIVDKVKPQLEEKTGETYGKLEAVQYKTQVVHYYVHYNDQGTNYYIKVRAGDNKYMHLKVFKSLWGENLFAKWEDLVLTGYQVDKNKDDELTGFAEAAAKEAAAKEAAAKEAAAKEAAAKEAAAKMIPGGLSEAKPATPEIQEIVDKVKPQLEEKTGETYGKLEAVQYKTQVVHYYVHYNDQGTNYYIKVRAGDNKYMHLKVFKSLWGENLFAKWEDLVLTGYQVDKNKDDELTGFAEAAAKEAAAKEAAAKEAAAKEAAAKEAAAKMIPGGLSEAKPATPEIQEIVDKVKPQLEEKTGETYGKLEAVQYKTQVVHYYVHYNDQGTNYYIKVRAGDNKYMHLKVFKSLWGENLFAKWEDLVLTGYQVDKNKDDELTGFAEAAAKEAAAKEAAAKEAAAKEAAAKEAAAKMIPRGLSEAKPATPEIQEIVDKVKPQLEEKTGETYGKLEAVQYKTQVLANFFQRRWPGSTNYYIKVRAGDNKYMHLKVFNGPWKFRNTDRGADRVLTGYQVDKNKDDELTGF
B2: clone-230 XT75 (designed binder)
chain: IPGGLSEAKPATPEIQEIVDKVKPQLEEKTGETYGKLEAVQYKTQVVHYYVHYNDQGTNYYIKVRAGDNKYMHLKVFKSLWGENLFAKWEDLVLTGYQVDKNKDDELTGFAEAAAKEAAAKEAAAKEAAAKEAAAKEAAAKMIPGGLSEAKPATPEIQEIVDKVKPQLEEKTGETYGKLEAVQYKTQVVHYYVHYNDQGTNYYIKVRAGDNKYMHLKVFKSLWGENLFAKWEDLVLTGYQVDKNKDDELTGFAEAAAKEAAAKEAAAKEAAAKEAAAKEAAAKMIPGGLSEAKPATPEIQEIVDKVKPQLEEKTGETYGKLEAVQYKTQVVHYYVHYNDQGTNYYIKVRAGDNKYMHLKVFKSLWGENLFAKWEDLVLTGYQVDKNKDDELTGFAEAAAKEAAAKEAAAKEAAAKEAAAKEAAAKMIPRGLSEAKPATPEIQEIVDKVKPQLEEKTGETYGKLEAVQYKTQVLANFFQRRWPGSTNYYIKVRAGDNKYMHLKVFNGPWKFRNTDRGADRVLTGYQVDKNKDDELTGF
B3: clone 230 (designed binder)
chain: MIPGGLSEAKPATPEIQEIVDKVKPQLEEKTGETYGKLEAVQYKTQVVHYYVHYNDQGTNYYIKVRAGDNKYMHLKVFKSLWGENLFAKWEDLVLTGYQVDKNKDDELTGF
B4: clone 230 DJ (designed binder)
chain: IPGGLSEAKPATPEIQEIVDKVKPQLEEKTGETYGKLEAVQYKTQVVHYYVHYNDQGTNYYIKVRAGDNKYMHLKVFKSLWGENLFAKWEDLVLTGYQVDKNKDDELTGFGGGGSGGGGSGGGGSGGGGSGGGGSGGGGSMIPGGLSEAKPATPEIQEIVDKVKPQLEEKTGETYGKLEAVQYKTQVVHYYVHYNDQGTNYYIKVRAGDNKYMHLKVFKSLWGENLFAKWEDLVLTGYQVDKNKDDELTGFGGGGSGGGGSGGGGSGGGGSGGGGSGGGGSMIPGGLSEAKPATPEIQEIVDKVKPQLEEKTGETYGKLEAVQYKTQVVHYYVHYNDQGTNYYIKVRAGDNKYMHLKVFKSLWGENLFAKWEDLVLTGYQVDKNKDDELTGF

How the values were obtained:
human serum albumin = biological target: T1, human serum albumin (human, UniProt P02768 25-609); assay: bridging ELISA: capture on coated hCD40L, 10 uM HSA, anti-HSA detection
T1 construct: also called HSA

[1] = biological target: T2, hCD40L expressed on hCD40L-HEK-293 cells (Crown Biosciences, C2041) (human, UniProt P29965 1-261); assay: flow cytometry on hCD40L-HEK293 cells, doses 0.7 to 500 nM
T2 construct: whole, on cells; also called huCD40L HEK293
T2 sequence (looked up): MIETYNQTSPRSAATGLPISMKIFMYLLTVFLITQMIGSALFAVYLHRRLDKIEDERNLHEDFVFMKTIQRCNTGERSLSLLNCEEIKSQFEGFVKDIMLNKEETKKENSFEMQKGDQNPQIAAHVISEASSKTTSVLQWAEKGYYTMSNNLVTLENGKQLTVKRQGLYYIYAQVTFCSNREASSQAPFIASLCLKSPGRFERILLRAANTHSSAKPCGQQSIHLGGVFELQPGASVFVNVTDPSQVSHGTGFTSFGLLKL

[2] = biological target: T3, human CD40L (hCD40L antigen) (human, UniProt P29965 113-261, limits assumed); assay: cell-based or functional assay
T3 sequence (looked up): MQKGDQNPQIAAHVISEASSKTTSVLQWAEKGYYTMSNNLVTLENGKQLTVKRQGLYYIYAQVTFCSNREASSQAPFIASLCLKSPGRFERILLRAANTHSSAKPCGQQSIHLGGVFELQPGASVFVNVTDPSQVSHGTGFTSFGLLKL

T1 sequence (P02768 25-609): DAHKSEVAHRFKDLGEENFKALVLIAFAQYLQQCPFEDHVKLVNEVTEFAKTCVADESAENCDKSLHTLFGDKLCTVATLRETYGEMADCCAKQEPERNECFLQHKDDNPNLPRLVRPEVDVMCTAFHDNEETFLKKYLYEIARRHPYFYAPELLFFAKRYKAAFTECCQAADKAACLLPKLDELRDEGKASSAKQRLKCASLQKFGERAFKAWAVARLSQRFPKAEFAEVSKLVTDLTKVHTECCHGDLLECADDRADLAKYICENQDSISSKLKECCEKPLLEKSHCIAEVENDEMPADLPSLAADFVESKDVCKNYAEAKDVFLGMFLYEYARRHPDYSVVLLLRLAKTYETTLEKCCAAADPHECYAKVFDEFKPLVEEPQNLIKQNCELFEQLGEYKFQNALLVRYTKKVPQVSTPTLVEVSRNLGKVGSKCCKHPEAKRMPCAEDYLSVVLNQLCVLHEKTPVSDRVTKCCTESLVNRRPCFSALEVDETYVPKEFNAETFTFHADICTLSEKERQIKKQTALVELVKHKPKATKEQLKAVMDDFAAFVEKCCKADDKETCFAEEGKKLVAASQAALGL

Row | Binder | binding result (human serum albumin) | also measured
1 | B1 | binds | 
2 | B2 | binds | 
3 | B3 |  | binding result [1]: binds
4 | B4 |  | EC50, HEK-Blue cell-based assay [2]: 5.99 nM
